We go through 4 substances from doi:10.1101/127183.

Assay [1] has as its target COCP with an Ala substitution of Trp-288 (COCP-W288A), carotenoid-bound holoform (Synechocystis). Kind of assay: SEC.
Assay [2] deals with Apoprotein of COCP (Apo-COCP) (Synechocystis). Nature of the assay: SEC.
The target of assay [3] is Synechocystis OCP^WT apoprotein (Apo-OCP) (Synechocystis) (UniProt P74102). Nature of the assay: SEC.
Assay [4] shares this target. Nature of the assay: SEC. The source holds these as a separate data set.
The target is the same in assay [5]. Kind of assay: SEC-SAXS with right angle light scattering.
The target of assay [6] is C-terminal OCP-related Carotenoid-binding Protein (COCP), carotenoid-bound holoform (Synechocystis). Nature of the assay: cross-linking.
Assay [7] concerns the target Synechocystis OCP^WT apoprotein (Apo-OCP) (Synechocystis) (UniProt P74102). Kind of assay: cross-linking.
Assay [8] concerns the target C-terminal OCP-related Carotenoid-binding Protein (COCP), carotenoid-bound holoform (Synechocystis). Kind of assay: SEC.

UniProt P74102, sequence (P74102 whole entry): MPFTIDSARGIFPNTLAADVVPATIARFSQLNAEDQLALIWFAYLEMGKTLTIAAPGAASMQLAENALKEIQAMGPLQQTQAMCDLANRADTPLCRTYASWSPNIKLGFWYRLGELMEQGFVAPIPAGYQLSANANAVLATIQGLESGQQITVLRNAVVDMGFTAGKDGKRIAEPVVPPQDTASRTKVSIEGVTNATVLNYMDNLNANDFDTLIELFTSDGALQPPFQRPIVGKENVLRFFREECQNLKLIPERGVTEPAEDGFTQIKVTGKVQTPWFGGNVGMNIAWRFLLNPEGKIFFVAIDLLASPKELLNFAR

Regarding “COCP with an Ala substitution of Trp-288 (COCP-W288A), carotenoid-bound holoform (domain or fragment)”, the stoichiometry N in assay [1] was 2.

In assay [2], “Apoprotein of COCP (Apo-COCP) (domain or fragment)” had a stoichiometry N of 2.

Turning to “Synechocystis OCP^WT apoprotein (Apo-OCP) (from UniProt P74102 1-317) (natural protein)”, the stoichiometry N in assay [3], in assay [4] and in assay [5] was 2 throughout.

Turning to “C-terminal OCP-related Carotenoid-binding Protein (COCP), carotenoid-bound holoform (domain or fragment)”, the stoichiometry N in assay [6] and in assay [8] was 2 each time. In addition, the stoichiometry N (COCP subunit per Apo-OCP subunit) in assay [7] turned out to be 1.
